These results are taken from paper PMC9692554.

Holding throughout (conditions): EMSA: 20 mM Tris pH 8, 60 mM KCl, 1 mM EDTA, 12% glycerol, 2 mM DTT, 1 ug poly(dI-dC), 12.5 ng (legend: 12.5 nM) Cy5-DNA, +/-5 mM Ca2+, 1% agarose 0.5x TAE …
For orientation: A gel shift assay detects complexes by their altered migration in electrophoresis.

The target in data set [1] is T1, pMarR G106A G106A (cyanophage P-SSP7) (UniProt Q58N47).
T1 sequence: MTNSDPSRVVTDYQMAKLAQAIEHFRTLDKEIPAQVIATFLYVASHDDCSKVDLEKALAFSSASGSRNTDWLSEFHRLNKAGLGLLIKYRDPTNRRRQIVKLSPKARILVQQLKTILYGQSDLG
As to the kind of experiment: EMSA.

In data set [2] the target is T2, pMarR (Gp0.7) WT (cyanophage P-SSP7) (UniProt Q58N47).
T2 sequence: T1 sequence with A106G
As to the kind of experiment: EMSA.

Data set [3] deals with T3, pMarR S66A S66A (cyanophage P-SSP7) (UniProt Q58N47).
T3 sequence: T1 sequence with S66A, A106G
As to the kind of experiment: EMSA.

Data set [4] concerns the target T4, pMarR R67A R67A (cyanophage P-SSP7) (UniProt Q58N47).
T4 sequence: T1 sequence with R67A, A106G
As to the kind of experiment: EMSA.

Data set [5] concerns the target T2, pMarR (Gp0.7) WT (cyanophage P-SSP7). As to the kind of experiment: DNase I footprinting.

Residue numbers refer to the chain shown, from its start.

In general, Kd refers to the constant that tells how readily two partners part at equilibrium. Consider “CAGCATCAATACCTGGTAGGACATTTTCAACAGTTCCTAAAAAAATATCCCCGATTTGATATTGACCTTGTGCGACGATTAATTCATCAACTTGATCATCTGTGAGTAGTGCTGCAATACGCGCCTGCTCAGCTATTACAATTTGCTGAGAC (double strand) [rne Pi+]”, for which the binding entry is recorded as “binds” in data set [1], “binds” in data set [3] and “no binding” in data set [4]. This sequence showed a dissociation constant (Kd) in data set [2] of 320 nM.

On to “CAGCATCAATACCTGGTAGGACATTTTCAACAGTTCCTAAAAAAATATCCCCGATTTGATATTGACCTTGTGCGACGATTAATTCATCAACTTGATCATCTGTGAGTAGTGCTGCAATACGCGCCTGCTCAGCTATTACAATTTGCTGAGACATAAAAATTTTAAAGTATGTTTTGAATTTTTGAAAATCGATAAAAAGTAAATAATTACATATTTAATTTTTCGCTAGCAATTTCTTGAAAGC (double strand) [rne footprint fragment (Pi+ and part of Pi)]”, for which the binding entry in data set [5] is on record as “binds”.
